In paper doi:10.1101/829945:

Biological target: fibrin fragment E
Experiment: SPR

Kd: 2 to 20 nM
Substance: soluble recombinant human αVβ3-integrin (from UniProt P06756 31-1048; P05106 27-718) (receptor)
